From the supplement of paper PMC9170038

Test system: K4 kissing-loop RNA reporter
Experiment: apparent KD of K4 kissing-loop reporter; higher = weaker reporter binding
Conditions: Eterna round: R107
Experimental: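 RNA-MaP round R107: designed RNA switches with theophylline, tryptophan, arginine or FMN aptamers are transcribed on-chip within common flanks. They are titrated with a labelled K4 kissing-loop RNA reporter in RNA-MaP buffer (100 mM Tris pH 7.5, 80 mM KCl, 4 mM MgCl2), without ligand or with the indicated ligand. Median apparent KD per design.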

[1] = input ligand: theophylline 20 uM
[2] = input ligand: tryptophan 2.4 mM
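Further: bound reporter read as fluorescence of individual clusters on recovered sequencing chips by microscopy, with normalized cluster intensities fitted with a binding model.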

Sequence | apparent KD of K4 kissing-loop reporter (input ligand: FMN 200 uM) [nM] | apparent KD of K4 kissing-loop reporter (input ligand: arginine 13.2 mM) [nM] | apparent KD of K4 kissing-loop reporter (input ligand: none) [nM] | apparent KD of K4 kissing-loop reporter [1] [nM] | apparent KD of K4 kissing-loop reporter [2] [nM]
UGAUACCAGACGGCCGCCACUCCUAGUGAUGUUAGGAACCUAAAAUAGCAUGUCAAAGACAUGCGGAGGACCGGGUCUGGUAUCU [TrypBX 23 #SwitchBubble #Palindromic #StaticStem] | 111 | 92.1 | 104 | 90.3 | 254
UGAUACCAGACGGCCGCCACUCCUGCAGUCAAAGACUGCAAAGGAAUAUUCGUCCAGUGAUGUUGGAGGACCGGGUCUGGUAUCU [TrypBX 11 #SwitchBubble #Palindromic #StaticStem] | 974 | 698 | 1210 | 701 | 844
UGAUACCAGACGGCCGCCACUGCACCAGUCAAUGACUGAGUGUAGUAAUGCUCAGUGAUGUUGAGUAGGACCGGGUCUGGUAUCU [Mod of Eli's TrypBX 8 v1] | 141 | 122 | 128 | 122 | 130
UGAUACCAGACGGCCGCCACUUCCGCAAGUCAAAGACUUGCCAAGGGAAUCGUCCAGUGAUGUUGGAGGACCGGGUCUGGUAUCU [FiskerMod 4 - Jieux - Exclusion - Tryptophan B] | 939 | 516 | 1220 | 525 | 587
UGAUACCAGACUGAUACCAGCCACAGAGUCAAGACUCUGAUAAAGGUAACCAGUGAUGUUGGCCCUUGGCAGCAGUCUGGUAUCU [TheoBX 16 #SwitchBubble #StaticStem] | 193 | 164 | 166 | 149 | 156
UGAUAGGACAGAAGGAGCGGGAGUGAUGUUCCCAAAAUGGAAGGUCGACAAAGUCGACCCUCCCAGGUAGGUCGCUGUCCUAUCU [ArgBX 6 #SwitchBubble #StaticStem] | 91.3 | 101 | 99.6 | 99.2 | 86.7
UGAUAGGACAGAAGGAGCGGGAGUGAUGUUCCCAAGGAUUGGUCUAGCAAAGCUGGACCCUCCCAGGUAGGUCGCUGUCCUAUCU [ArgBX 5 #SwitchBubble #StaticStem] | 195 | 223 | 222 | 182 | 191
UGAUAGGACAGAAGGAGCGGUAGUGAUGUUGCCAAAAGUAUAAGGUGUCAAAAGACACCCUGCCAGGUAGGUCGCUGUCCUAUCU | 134 | 228 | 187 | 190 | 137
UGAUCUCAGUGAUGUUGAGAUCAAACUGAUACCAGUCAAUUUAGUGACCCUUGGCAGCAGUAUACCAAGGGAUCUUAUGAGAUCA [Theo A SS t5] | 173 | 152 | 165 | 162 | 154
UGAUUAAGCAGUGAUGUUGCAAGUAAUGAUACCAGUUAAGAAGAGAACCCUUGGCAGCAUAAAGUGCGCUCUGAUGAGUGUGCUU [whbob_SS_Theo_A_w53] | 101 | 153 | 123 | 169 | 95.6
UGAUUGGCGAAAGUAGUGAUGUUACGAAUAUAGGAUAUUAGAGGAAUAAGAAGGAUAAAUGAGAAAUAGGUAAAUUGUUGGUUGG [FMN same state] | 101 | 51.5 | 95.5 | 116 | 94.5
UGAUUUAACUGAAGGAGCGGCAAUUGAUAAGUAAAUAUAGUGAUGUUAUAUAAGAUAGAGAGCCAGGUAGGUCGCAGAGGUAUUU [ExArgB.N] | 173 | 141 | 154 | 153 | 141
UGCACGGGCUCGGCCGCCACUCCCGCGGGUCGCAAGGUCCGCUACUGAGUGAUGUUCGGUUGGAGGAGGACCGGGAGCCCGUGCA [#2 Exclusion - Tryptophan B Attempt #27 (HarryS)] | 131 | 110 | 113 | 112 | 107
UGCCGGGCUGUACGUUACUUAAAUCGCGAUACCAGCGAUACAAUCCGCCCUUGGCAGCGCAGUGAUGUUGCGCGGUCAUUACGGG [theeternabot_exclusion_KL_Theo_A_27] | 100 | 90.5 | 95.8 | 103 | 91.4
UGCGCUAUGUCCUAAAAUGUCCUCCGGGAUACCAGAGUCUUUUUAUUCCCUUGGCAGCUUGAGUGAUGUUUGAUGCCGUUCUUGU [nnbvmullin] | 708 | 294 | 551 | 355 | 415
UGCGCUGCCUGAGGAUAUAGAAACGAGUGAUGUUCGUGGAUAAGAGCCAGUGAUGUUGGGUUAUUUCUAGAAGGCAGGCAAAGUA [Exclusion FMN B GF7] | 108 | 98.2 | 117 | 93.4 | 104
UGCUGGUCAUAGCGUAGUGUGAGCCGCUCACGAGGACCGGUACGGCCGCCACUCGUUACAAAGCAGUGAUGUUGCAAUAGGCUCU [theeternabot_sameState_KL_Trp_A_24] | 332 | 407 | 339 | 417 | 156
